Data taken from patent US20060057623.

Biological target: HDAC1 (histone deacetylase 1), wild-type, Q13547
Sequence (Q13547 whole entry): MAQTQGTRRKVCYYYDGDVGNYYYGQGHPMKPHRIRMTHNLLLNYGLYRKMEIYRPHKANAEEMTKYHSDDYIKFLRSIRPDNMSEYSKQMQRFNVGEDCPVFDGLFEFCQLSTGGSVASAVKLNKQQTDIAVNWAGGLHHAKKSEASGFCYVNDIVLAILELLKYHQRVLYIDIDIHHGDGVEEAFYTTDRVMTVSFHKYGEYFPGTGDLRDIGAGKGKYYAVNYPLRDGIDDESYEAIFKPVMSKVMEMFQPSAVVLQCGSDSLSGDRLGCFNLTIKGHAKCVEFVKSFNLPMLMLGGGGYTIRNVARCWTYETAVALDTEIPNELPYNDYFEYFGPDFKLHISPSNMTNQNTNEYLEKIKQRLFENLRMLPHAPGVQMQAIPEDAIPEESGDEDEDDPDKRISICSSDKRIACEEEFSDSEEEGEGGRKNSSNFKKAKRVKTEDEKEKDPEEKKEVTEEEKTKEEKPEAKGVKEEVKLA

B1: SENP1 (Sentrin/SUMO-specific protease 1), wild-type (protein)
chain: MDDIADRMRMDAGEVTLVNHNSVFKTHLLPQTGFPEDQLSLSDQQILSSRQGHLDRSFTCSTRSAAYNPSYYSDNPSSDSFLGSGDLRTFGQSANGQWRNSTPSSSSSLQKSRNSRSLYLETRKTSSGLSNSFAGKSNHHCHVSAYEKSFPIKPVPSPSWSGSCRRSLLSPKKTQRRHVSTAEETVQEEEREIYRQLLQMVTGKQFTIAKPTTHFPLHLSRCLSSSKNTLKDSLFKNGNSCASQIIGSDTSSSGSASILTNQEQLSHSVYSLSSYTPDVAFGSKDSGTLHHPHHHHSVPHQPDNLAASNTQSEGSDSVILLKVKDSQTPTPSSTFFQAELWIKELTSVYDSRARERLRQIEEQKALALQLQNQRLQEREHSVHDSVELHLRVPLEKEIPVTVVQETQKKGHKLTDSEDEFPEITEEMEKEIKNVFRNGNQDEVLSEAFRLTITRKDIQTLNHLNWLNDEIINFYMNMLMERSKEKGLPSVHAFNTFFFTKLKTAGYQAVKRWTKKVDVFSVDILLVPIHLGVHWCLAVVDFRKKNITYYDSMGGINNEACRILLQYLKQESIDKKRKEFDTNGWQLFSKKSQEIPQQMNGSDCGMFACKYADCITKDRPINFTQQHMPYFRKRMVWEILHRKLL
deacetylase activity of HDAC1 precipitates: In the presence of SENP1, the deacetylase activity of HDAC1 precipitates had a 70% reduction
